Data from publication PMC2841437.

Tests used:
[1] = target: activated GST fusion protein of full-length human Akt1 (T308D/S473D) (human) (UniProt P31749); assay: other fluorescence titration
[2] = target: activated GST fusion protein of full-length human Akt1 (T308D/S473D) (human) (UniProt P31749); assay: pull-down

UniProt P31749, sequence (P31749 whole entry T308D/S473D, the tested form may be a part): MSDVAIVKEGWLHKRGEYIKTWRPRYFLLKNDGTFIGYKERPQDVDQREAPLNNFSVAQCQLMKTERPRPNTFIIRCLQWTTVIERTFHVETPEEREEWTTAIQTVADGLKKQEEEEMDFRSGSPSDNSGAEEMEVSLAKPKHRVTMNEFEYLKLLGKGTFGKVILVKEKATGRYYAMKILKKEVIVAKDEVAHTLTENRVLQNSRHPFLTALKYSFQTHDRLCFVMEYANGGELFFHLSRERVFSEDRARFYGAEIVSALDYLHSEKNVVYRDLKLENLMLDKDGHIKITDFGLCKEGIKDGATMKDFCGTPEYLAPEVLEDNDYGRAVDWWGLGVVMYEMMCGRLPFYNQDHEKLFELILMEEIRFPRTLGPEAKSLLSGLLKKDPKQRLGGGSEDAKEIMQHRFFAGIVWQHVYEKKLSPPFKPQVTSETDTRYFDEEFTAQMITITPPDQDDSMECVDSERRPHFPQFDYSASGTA

T7-tagged CBP CH3 fragment with T1872A (from UniProt P45481 1756-1878) (domain or fragment)
Kd [1]: 1.2 nM

GSK-3α/β fusion protein
percentage of recovery [2]: 31.7%

T7-tagged CBP CH3 fragment with T1872D (from UniProt P45481 1756-1878) (domain or fragment)
Kd [1]: 4.07 nM
